Assay results reported in IntAct's records for PubMed 25096571.

Molecular target: FOXP3, Q9BZS1-1
Sequence (Q9BZS1 whole entry): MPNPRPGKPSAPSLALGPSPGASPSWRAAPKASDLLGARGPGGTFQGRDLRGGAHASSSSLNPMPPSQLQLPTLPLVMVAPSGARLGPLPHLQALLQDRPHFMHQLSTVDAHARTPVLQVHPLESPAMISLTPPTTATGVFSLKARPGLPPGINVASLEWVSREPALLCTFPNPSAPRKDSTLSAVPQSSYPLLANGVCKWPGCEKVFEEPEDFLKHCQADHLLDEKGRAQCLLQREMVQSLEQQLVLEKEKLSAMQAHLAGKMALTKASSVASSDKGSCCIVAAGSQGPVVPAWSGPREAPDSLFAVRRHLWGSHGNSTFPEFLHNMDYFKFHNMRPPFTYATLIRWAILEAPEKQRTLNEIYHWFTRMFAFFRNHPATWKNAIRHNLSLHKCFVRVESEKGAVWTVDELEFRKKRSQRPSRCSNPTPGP

effect of a mutation on the interaction: disrupting interaction strength
Substance: Serine/threonine-protein kinase pim-1 (Homo sapiens), P11309-1 K67M
